Source: patent US20130336893A1 (Sanofi, published 2013)
*1 amine or outer side, *2 acyl side, *3 side chain or, on linkers, in order; H or OH if unused. Where no end group is shown, it is not given here. Side-chain parts run from the residue outwards. [ ]: non-standard residue; d: D form. The star is where a group is joined. γGlu = O=C(O)[C@H](CCC(=O)[*:2])N[*:1]; Stearoyl = CCCCCCCCCCCCCCCCCC(=O)*; Palmitoyl = CCCCCCCCCCCCCCCC(=O)*; Aib = CC(C)(N)C(=O)O

B1: SEQ ID NO: (76) (peptide)
peptide: H[dS]QGTFTSDLSKQMESRRAQDFIEWLKR[dA]GPSSGAPPPSK([γGlu-Palmitoyl])-NH2
modifications: N-terminus assumed
SMILES: CCCCCCCCCCCCCCCC(=O)N[C@@H](CCC(=O)NCCCC[C@H](NC(=O)[C@H](CO)NC(=O)[C@@H]1CCCN1C(=O)[C@@H]1CCCN1C(=O)[C@@H]1CCCN1C(=O)[C@H](C)NC(=O)CNC(=O)[C@H](CO)NC(=O)[C@H](CO)NC(=O)[C@@H]1CCCN1C(=O)CNC(=O)[C@@H](C)NC(=O)[C@H](CCCNC(=N)N)NC(=O)[C@H](CCCCN)NC(=O)[C@H](CC(C)C)NC(=O)[C@H](Cc1c[nH]c2ccccc12)NC(=O)[C@H](CCC(=O)O)NC(=O)[C@@H](NC(=O)[C@H](Cc1ccccc1)NC(=O)[C@H](CC(=O)O)NC(=O)[C@H](CCC(N)=O)NC(=O)[C@H](C)NC(=O)[C@H](CCCNC(=N)N)NC(=O)[C@H](CCCNC(=N)N)NC(=O)[C@H](CO)NC(=O)[C@H](CCC(=O)O)NC(=O)[C@H](CCSC)NC(=O)[C@H](CCC(N)=O)NC(=O)[C@H](CCCCN)NC(=O)[C@H](CO)NC(=O)[C@H](CC(C)C)NC(=O)[C@H](CC(=O)O)NC(=O)[C@H](CO)NC(=O)[C@@H](NC(=O)[C@H](Cc1ccccc1)NC(=O)[C@@H](NC(=O)CNC(=O)[C@H](CCC(N)=O)NC(=O)[C@@H](CO)NC(=O)[C@@H](N)Cc1c[nH]cn1)[C@@H](C)O)[C@@H](C)O)[C@@H](C)CC)C(N)=O)C(=O)O
B2: SEQ ID NO: (77) (peptide)
peptide: H[dS]QGTFTSDLSKQMESRRAQDFIEWLKKGGPSSGAPPPSK([γGlu-Palmitoyl])-NH2
modifications: N-terminus assumed
SMILES: CCCCCCCCCCCCCCCC(=O)N[C@@H](CCC(=O)NCCCC[C@H](NC(=O)[C@H](CO)NC(=O)[C@@H]1CCCN1C(=O)[C@@H]1CCCN1C(=O)[C@@H]1CCCN1C(=O)[C@H](C)NC(=O)CNC(=O)[C@H](CO)NC(=O)[C@H](CO)NC(=O)[C@@H]1CCCN1C(=O)CNC(=O)CNC(=O)[C@H](CCCCN)NC(=O)[C@H](CCCCN)NC(=O)[C@H](CC(C)C)NC(=O)[C@H](Cc1c[nH]c2ccccc12)NC(=O)[C@H](CCC(=O)O)NC(=O)[C@@H](NC(=O)[C@H](Cc1ccccc1)NC(=O)[C@H](CC(=O)O)NC(=O)[C@H](CCC(N)=O)NC(=O)[C@H](C)NC(=O)[C@H](CCCNC(=N)N)NC(=O)[C@H](CCCNC(=N)N)NC(=O)[C@H](CO)NC(=O)[C@H](CCC(=O)O)NC(=O)[C@H](CCSC)NC(=O)[C@H](CCC(N)=O)NC(=O)[C@H](CCCCN)NC(=O)[C@H](CO)NC(=O)[C@H](CC(C)C)NC(=O)[C@H](CC(=O)O)NC(=O)[C@H](CO)NC(=O)[C@@H](NC(=O)[C@H](Cc1ccccc1)NC(=O)[C@@H](NC(=O)CNC(=O)[C@H](CCC(N)=O)NC(=O)[C@@H](CO)NC(=O)[C@@H](N)Cc1c[nH]cn1)[C@@H](C)O)[C@@H](C)O)[C@@H](C)CC)C(N)=O)C(=O)O
B3: SEQ ID NO: (80) (peptide)
peptide: H[dS]QGTFTSDLSKQMESRRAQDFIEWLK[Aib]GGPSSGAPPPK([γGlu-Palmitoyl])-NH2
modifications: N-terminus assumed
SMILES: CCCCCCCCCCCCCCCC(=O)N[C@@H](CCC(=O)NCCCC[C@H](NC(=O)[C@@H]1CCCN1C(=O)[C@@H]1CCCN1C(=O)[C@@H]1CCCN1C(=O)[C@H](C)NC(=O)CNC(=O)[C@H](CO)NC(=O)[C@H](CO)NC(=O)[C@@H]1CCCN1C(=O)CNC(=O)CNC(=O)C(C)(C)NC(=O)[C@H](CCCCN)NC(=O)[C@H](CC(C)C)NC(=O)[C@H](Cc1c[nH]c2ccccc12)NC(=O)[C@H](CCC(=O)O)NC(=O)[C@@H](NC(=O)[C@H](Cc1ccccc1)NC(=O)[C@H](CC(=O)O)NC(=O)[C@H](CCC(N)=O)NC(=O)[C@H](C)NC(=O)[C@H](CCCNC(=N)N)NC(=O)[C@H](CCCNC(=N)N)NC(=O)[C@H](CO)NC(=O)[C@H](CCC(=O)O)NC(=O)[C@H](CCSC)NC(=O)[C@H](CCC(N)=O)NC(=O)[C@H](CCCCN)NC(=O)[C@H](CO)NC(=O)[C@H](CC(C)C)NC(=O)[C@H](CC(=O)O)NC(=O)[C@H](CO)NC(=O)[C@@H](NC(=O)[C@H](Cc1ccccc1)NC(=O)[C@@H](NC(=O)CNC(=O)[C@H](CCC(N)=O)NC(=O)[C@@H](CO)NC(=O)[C@@H](N)Cc1c[nH]cn1)[C@@H](C)O)[C@@H](C)O)[C@@H](C)CC)C(N)=O)C(=O)O
B4: SEQ ID NO: (78) (peptide)
peptide: H[dS]QGTFTSDLSKQMESRRAQDFIEWLKSGGPSSGAPPPSK([γGlu-Palmitoyl])-NH2
modifications: N-terminus assumed
SMILES: CCCCCCCCCCCCCCCC(=O)N[C@@H](CCC(=O)NCCCC[C@H](NC(=O)[C@H](CO)NC(=O)[C@@H]1CCCN1C(=O)[C@@H]1CCCN1C(=O)[C@@H]1CCCN1C(=O)[C@H](C)NC(=O)CNC(=O)[C@H](CO)NC(=O)[C@H](CO)NC(=O)[C@@H]1CCCN1C(=O)CNC(=O)CNC(=O)[C@H](CO)NC(=O)[C@H](CCCCN)NC(=O)[C@H](CC(C)C)NC(=O)[C@H](Cc1c[nH]c2ccccc12)NC(=O)[C@H](CCC(=O)O)NC(=O)[C@@H](NC(=O)[C@H](Cc1ccccc1)NC(=O)[C@H](CC(=O)O)NC(=O)[C@H](CCC(N)=O)NC(=O)[C@H](C)NC(=O)[C@H](CCCNC(=N)N)NC(=O)[C@H](CCCNC(=N)N)NC(=O)[C@H](CO)NC(=O)[C@H](CCC(=O)O)NC(=O)[C@H](CCSC)NC(=O)[C@H](CCC(N)=O)NC(=O)[C@H](CCCCN)NC(=O)[C@H](CO)NC(=O)[C@H](CC(C)C)NC(=O)[C@H](CC(=O)O)NC(=O)[C@H](CO)NC(=O)[C@@H](NC(=O)[C@H](Cc1ccccc1)NC(=O)[C@@H](NC(=O)CNC(=O)[C@H](CCC(N)=O)NC(=O)[C@@H](CO)NC(=O)[C@@H](N)Cc1c[nH]cn1)[C@@H](C)O)[C@@H](C)O)[C@@H](C)CC)C(N)=O)C(=O)O
B5: SEQ ID NO: (79) (peptide)
peptide: H[dS]QGTFTSDLSKQMESRAAQLFIEWLKAGGPSSGAPPPSK([γGlu-Palmitoyl])-NH2
modifications: N-terminus assumed
SMILES: CCCCCCCCCCCCCCCC(=O)N[C@@H](CCC(=O)NCCCC[C@H](NC(=O)[C@H](CO)NC(=O)[C@@H]1CCCN1C(=O)[C@@H]1CCCN1C(=O)[C@@H]1CCCN1C(=O)[C@H](C)NC(=O)CNC(=O)[C@H](CO)NC(=O)[C@H](CO)NC(=O)[C@@H]1CCCN1C(=O)CNC(=O)CNC(=O)[C@H](C)NC(=O)[C@H](CCCCN)NC(=O)[C@H](CC(C)C)NC(=O)[C@H](Cc1c[nH]c2ccccc12)NC(=O)[C@H](CCC(=O)O)NC(=O)[C@@H](NC(=O)[C@H](Cc1ccccc1)NC(=O)[C@H](CC(C)C)NC(=O)[C@H](CCC(N)=O)NC(=O)[C@H](C)NC(=O)[C@H](C)NC(=O)[C@H](CCCNC(=N)N)NC(=O)[C@H](CO)NC(=O)[C@H](CCC(=O)O)NC(=O)[C@H](CCSC)NC(=O)[C@H](CCC(N)=O)NC(=O)[C@H](CCCCN)NC(=O)[C@H](CO)NC(=O)[C@H](CC(C)C)NC(=O)[C@H](CC(=O)O)NC(=O)[C@H](CO)NC(=O)[C@@H](NC(=O)[C@H](Cc1ccccc1)NC(=O)[C@@H](NC(=O)CNC(=O)[C@H](CCC(N)=O)NC(=O)[C@@H](CO)NC(=O)[C@@H](N)Cc1c[nH]cn1)[C@@H](C)O)[C@@H](C)O)[C@@H](C)CC)C(N)=O)C(=O)O

Tests used:
human GLP-1 receptor = human GLP-1 receptor (human, UniProt P43220 24-463); experiment: cell-based or functional assay
human glucagon receptor = human glucagon receptor (human, UniProt P47871 26-477); experiment: cell-based or functional assay
human glucagon receptor, sequence (P47871 26-477): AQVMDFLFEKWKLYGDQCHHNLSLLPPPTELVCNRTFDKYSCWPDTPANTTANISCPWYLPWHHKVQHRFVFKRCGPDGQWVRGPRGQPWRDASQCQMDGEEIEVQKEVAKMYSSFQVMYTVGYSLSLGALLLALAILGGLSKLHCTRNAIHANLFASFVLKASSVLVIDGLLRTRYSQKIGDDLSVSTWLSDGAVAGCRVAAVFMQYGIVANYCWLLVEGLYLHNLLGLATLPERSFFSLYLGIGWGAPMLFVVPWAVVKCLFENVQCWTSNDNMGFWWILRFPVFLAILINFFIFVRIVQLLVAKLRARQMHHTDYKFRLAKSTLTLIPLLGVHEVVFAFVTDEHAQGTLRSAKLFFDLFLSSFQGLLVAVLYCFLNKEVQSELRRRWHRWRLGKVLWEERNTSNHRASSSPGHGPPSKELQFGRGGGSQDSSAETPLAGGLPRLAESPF

Binder | EC50 hGLP-1R (cAMP formation) (human GLP-1 receptor) | EC50 hGlucagonR (cAMP formation) (human glucagon receptor)
H[dS]QGTFTSDLSKQMESRRAQDFIEWLKSGGPSSGAPPPSK([γGlu-Stearoyl])-NH2 [SEQ ID NO: (84)] | 0.0039 nM | 0.0138 nM
H[dS]QGTFTSDLSKQMESRRAQDFIEWLKSGGPSSGAPPPSK(Stearoyl)-NH2 [SEQ ID NO: (85)] | 0.0064 nM | 0.009 nM
Ac-H[dS]QGTFTSDLSKQMESRRAQDFIEWLKSGGPSSGAPPPSK([γGlu-Palmitoyl])-NH2 [SEQ ID NO: (83)] | 0.369 nM | 0.375 nM
HSQGTFTSDLSKQMDERRAQDFIEWLKNGGPSSGAPPPS-NH2 [SEQ ID NO: (5)] | 0.0166 nM | 0.067 nM
H[dS]QGTFTSDLSKQMESRRAQDFIEWLKSGGPSSGAPPPSK([γGlu-tocopheryl‑succinyl])-NH2 [SEQ ID NO: (86)] | 0.0281 nM | 0.0218 nM
B1 | 0.0048 nM | 0.0741 nM
B2 | 0.003 nM | 0.0372 nM
B3 | 0.0108 nM | 0.0381 nM
B4 | 0.0042 nM | 0.0181 nM
GH[dS]QGTFTSDLSKQMESRRAQDFIEWLKSGGPSSGAPPPSK([γGlu-Palmitoyl])-NH2 [SEQ ID NO: (82)] | 2.59 nM | 5.52 nM
H[dS]QGTFTSDLSKQMESRRAQDFIEWLK[Aib]GGPSSGAPPPK(Palmitoyl)-NH2 [SEQ ID NO: (81)] | 0.0197 nM | 0.0293 nM
B5 | 0.0037 nM | 0.195 nM
